Experiment [1] deals with T1, FLT3 TriTAC.
T1 construct: Single-chain trispecific; also called constitutively active FLT3 TriTAC
Briefly: biolayer interferometry.

Experiment [2] has as its target T2, stub:Active control; αCD19 T:A:C stub:Active.
T2 construct: Single-chain trispecific; also called TriTAC-XR active drug; constitutively active CD19 TriTAC
Nature of the experiment: ELISA on recombinant human CD3ε. A general note: An ELISA detects its analyte on a solid surface through an enzyme-linked reagent.

The values below come from patent US20240216518A1 (HARPOON THERAPEUTICS, published 2024).

A word on the Kd: it is a measure of binding affinity in units of concentration. Lower therefore signals higher affinity.

T1 sequence (chain, as listed by the source): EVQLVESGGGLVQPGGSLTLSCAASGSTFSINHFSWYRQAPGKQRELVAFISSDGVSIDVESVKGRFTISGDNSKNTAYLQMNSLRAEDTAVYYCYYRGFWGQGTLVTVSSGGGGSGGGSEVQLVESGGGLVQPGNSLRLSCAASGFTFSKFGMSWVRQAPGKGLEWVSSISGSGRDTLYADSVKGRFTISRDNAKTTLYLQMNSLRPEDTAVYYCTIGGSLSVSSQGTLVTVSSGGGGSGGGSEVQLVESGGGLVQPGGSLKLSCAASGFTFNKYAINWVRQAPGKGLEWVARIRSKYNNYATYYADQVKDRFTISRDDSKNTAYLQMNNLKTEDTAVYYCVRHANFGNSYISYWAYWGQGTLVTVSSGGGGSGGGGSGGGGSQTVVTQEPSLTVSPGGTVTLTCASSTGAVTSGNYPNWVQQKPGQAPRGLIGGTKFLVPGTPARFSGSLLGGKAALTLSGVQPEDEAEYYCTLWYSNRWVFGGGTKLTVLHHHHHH
T2 sequence (chain, as listed by the source): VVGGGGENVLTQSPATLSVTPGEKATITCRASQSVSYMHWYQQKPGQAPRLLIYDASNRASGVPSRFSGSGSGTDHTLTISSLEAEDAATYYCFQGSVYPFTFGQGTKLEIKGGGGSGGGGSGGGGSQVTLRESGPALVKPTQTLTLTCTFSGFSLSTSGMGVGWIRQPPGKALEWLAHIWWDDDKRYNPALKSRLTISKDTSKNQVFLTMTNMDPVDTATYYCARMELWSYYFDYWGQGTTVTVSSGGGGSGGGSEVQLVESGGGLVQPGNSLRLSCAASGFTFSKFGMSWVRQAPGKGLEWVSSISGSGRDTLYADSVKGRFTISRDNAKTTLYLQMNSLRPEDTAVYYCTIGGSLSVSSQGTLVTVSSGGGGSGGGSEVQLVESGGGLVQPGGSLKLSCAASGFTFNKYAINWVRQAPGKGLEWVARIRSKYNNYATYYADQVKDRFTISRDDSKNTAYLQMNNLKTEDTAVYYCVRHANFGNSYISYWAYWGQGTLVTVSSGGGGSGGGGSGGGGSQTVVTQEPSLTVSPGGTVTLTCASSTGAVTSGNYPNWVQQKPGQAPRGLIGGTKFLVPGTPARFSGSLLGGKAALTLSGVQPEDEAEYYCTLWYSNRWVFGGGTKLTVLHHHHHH

B1: cynomolgus albumin (other, UniProt A2V9Z4 25-608, looked up)
chain: DTHKSEVAHRFKDLGEEHFKGLVLVAFSQYLQQCPFEEHVKLVNEVTEFAKTCVADESAENCDKSLHTLFGDKLCTVATLRETYGEMADCCAKQEPERNECFLQHKDDNPNLPPLVRPEVDVMCTAFHDNEATFLKKYLYEVARRHPYFYAPELLFFAARYKAAFAECCQAADKAACLLPKLDELRDEGKASSAKQRLKCASLQKFGDRAFKAWAVARLSQKFPKAEFAEVSKLVTDLTKVHTECCHGDLLECADDRADLAKYMCENQDSISSKLKECCDKPLLEKSHCLAEVENDEMPADLPSLAADYVESKDVCKNYAEAKDVFLGMFLYEYARRHPDYSVMLLLRLAKAYEATLEKCCAAADPHECYAKVFDEFQPLVEEPQNLVKQNCELFEQLGEYKFQNALLVRYTKKVPQVSTPTLVEVSRNLGKVGAKCCKLPEAKRMPCAEDYLSVVLNRLCVLHEKTPVSEKVTKCCTESLVNRRPCFSALELDEAYVPKAFNAETFTFHADMCTLSEKEKQVKKQTALVELVKHKPKATKEQLKGVMDNFAAFVEKCCKADDKEACFAEEGPKFVAASQAALA
notes: also called cynomolgus serum albumin
As for B1, in experiment [1], the Kd turned out to be 4.4 nM.

B2: cynomolgus CD3 (receptor)
chain: QDGNEEMGSITQTPYQVSISGTTVILTCSQHLGSEAQWQHNGKNKEDSGDRLFLPEFSEMEQSGYYVCYPRGSNPEDASHHLYLKARVCENCMEMD
Turning to B2, the equilibrium dissociation constant (Kd) in experiment [1] came to 3.3 nM.

B3: cynomolgus FLT3 (receptor)
chain: NQDLPVIKCVLINHKNNDSSVGKSSSYPMVSESPEDLGCALRPQSAGTVYEAATVEVDVSASITLQVLVDTPGNISCLWVFKHSSLNCQPHFDVQNRGVVSMVILKMTETQAGEYLLFIQSEATNYTIVFTVSIRNTLLFTLRRPYFRKMENQDALVCISESVPEPIVEWVLCDSQGESCKEESPAVVKKEEKVLHELFGTDIRCCARNELGRECTRLFTIDLNQTPQTTLPQLFLKVGEPLWIRCKAVHVNHGFGLTWELENKALEEGSYFEMSTYSTNRTMIRILFAFVSSVARNDTGYYTCSSSKHPSQSALVTIVEKGFINATNSSEDYEIDQYEEFCFSVRFKAYPQIRCTWTFSRKAFPCEQKALDDGYSVSKFCNHKHQPGEYIFHAENGDAQFTKMFTLNIRRKPQVLAEASASQASCSSDGYPLPSWTWKKCSDKSPNCTEDIPEGVWNRKANRKVFGQWVSSSTLNMSEAMKGFLVKCCAYNSLGTSCETILLNSPGPFPFIQDS
In turn, B3 had a dissociation constant Kd in experiment [1] of 2.7 nM.

B4: recombinant human CD3ε (receptor, UniProt P07766 23-126, looked up)
chain: DGNEEMGGITQTPYKVSISGTTVILTCPQYPGSEILWQHNDKNIGGDEDDKNIGSDEDHLSLKEFSELEQSGYYVCYPRGSKPEDANFYLYLRARVCENCMEMD
For the molecule B4, the binding result in experiment [2] is recorded as “binds”.
